Target: PD-L1 (recombinant human) (Homo sapiens) (UniProt Q9NZQ7)
Assay: ELONA
Details: 1:1 hyperbolic fit; internal C3 spacer (iSpC3) between DNA nt 63 and RNA nt 1 (strand position 64); nt 1-63 DNA, nt 64-82 RNA; strand 2 RNA; ELONA: PD-L1 coated in PBS at 4 C overnight; blocked with PBS, 0.1% Tween 20, 1% BSA; wash PBS, 1 mM MgCl2, 0.1% Tween 20, 0.1% BSA; oligo heated 95 C 10 min …

Chain of PD-L1 (recombinant human) (Homo sapiens) (Q9NZQ7 19-238): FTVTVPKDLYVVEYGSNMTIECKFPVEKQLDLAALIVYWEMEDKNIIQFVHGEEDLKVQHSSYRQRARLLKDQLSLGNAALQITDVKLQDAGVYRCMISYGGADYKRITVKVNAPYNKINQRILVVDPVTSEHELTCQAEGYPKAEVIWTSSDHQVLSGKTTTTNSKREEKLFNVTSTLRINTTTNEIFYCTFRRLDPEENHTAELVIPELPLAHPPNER

## ACCGACCGTGCTGGACTCATCTCGCTTTTTTCACGGTCCACACTACTATGAGCGAGCCTGGCGGGAAUGACCUCUUUCACCA / UGGUGAAAGAGGUCAUUCC [PD-L1 aptamer-CD47 siRNA chimera]
  Kd: 174 nM

From PMC12708450
